Key:
[1] = biological target: fluoroacetate dehalogenase (FAcD) RPA1163 (Rhodopseudomonas palustris, UniProt Q6NAM1, F40A); assay: isothermal microcalorimetry steady-state kinetics; format: biochemical; settings: read-out: Fluoroacetate / Km; 100 mM Tris-H2SO4 pH 8.5, 30°C
[2] = biological target: fluoroacetate dehalogenase (FAcD) RPA1163 (Rhodopseudomonas palustris, UniProt Q6NAM1, W185F); assay: isothermal microcalorimetry steady-state kinetics; format: biochemical; settings: read-out: Fluoroacetate / Km; 100 mM Tris-H2SO4 pH 8.5, 30°C
[3] = biological target: fluoroacetate dehalogenase (FAcD) RPA1163 (Rhodopseudomonas palustris, UniProt Q6NAM1, Y219F); assay: isothermal microcalorimetry steady-state kinetics; format: biochemical; settings: read-out: Fluoroacetate / Km; 100 mM Tris-H2SO4 pH 8.5, 30°C
[4] = biological target: fluoroacetate dehalogenase (FAcD) RPA1163 (Rhodopseudomonas palustris, UniProt Q6NAM1, H155N); assay: isothermal microcalorimetry steady-state kinetics; format: biochemical; settings: read-out: Fluoroacetate / Km; 100 mM Tris-H2SO4 pH 8.5, 30°C
[5] = biological target: fluoroacetate dehalogenase (FAcD) RPA1163 (Rhodopseudomonas palustris, UniProt Q6NAM1, W156H); assay: isothermal microcalorimetry steady-state kinetics; format: biochemical; settings: read-out: Fluoroacetate / Km; 100 mM Tris-H2SO4 pH 8.5, 30°C
O=C(O)CCl = assay: isothermal microcalorimetry steady-state kinetics; format: biochemical, Rhodopseudomonas palustris; settings: 100 mM Tris-H2SO4 pH 8.5, 30°C
crystal structure = biological target: the molecule itself; assay: crystal structure

Molecule | Km (O=C(O)CCl) | kcat (O=C(O)CCl) | kcat/Km (O=C(O)CCl) | further results
O=C(O)CF [fluoroacetate] | – | – | – | Km [1]: 4400 ± 800 µM; Km [2]: 3300 ± 600 µM; Km [3]: 1700 ± 200 µM; Km [4]: 2900 ± 200 µM; Km [5]: 8000 ± 3000 µM
fluoroacetate dehalogenase (FAcD) RPA1163 (Rhodopseudomonas palustris CGA009; F40A) | 1500 ± 400 µM | 0.000483 ± 0.00015 s⁻¹ | 0.32 M⁻¹ s⁻¹ | –
fluoroacetate dehalogenase (FAcD) RPA1163 (Rhodopseudomonas palustris CGA009; H155N) | 2000 ± 300 µM | 0.0883 ± 0.00833 s⁻¹ | 45 M⁻¹ s⁻¹ | –
fluoroacetate dehalogenase (FAcD) RPA1163 (Rhodopseudomonas palustris CGA009; W156H) | 6000 ± 1000 µM | 0.00167 ± 0.000333 s⁻¹ | 0.27 M⁻¹ s⁻¹ | –
fluoroacetate dehalogenase (FAcD) RPA1163 (Rhodopseudomonas palustris CGA009; W185F) | 1000 ± 300 µM | 0.00533 ± 0.000667 s⁻¹ | 5 M⁻¹ s⁻¹ | –
fluoroacetate dehalogenase (FAcD) RPA1163 (Rhodopseudomonas palustris CGA009; Y219F) | 1000 ± 70 µM | 0.007 ± 0.000667 s⁻¹ | 7 M⁻¹ s⁻¹ | –
fluoroacetate dehalogenase RPA1163 (wild type) (enzyme, Rhodopseudomonas palustris CGA009) MPDLADLFPGFGSEWINTSSGRIFARVGGDGPPLLLLHGFPQTHVMWHRVAPKLAERFKVIVADLPGYGWSDMPESDEQHTPYTKRAMAKQLIEAMEQLGHVHFALAGHDRGARVSYRLALDSPGRLSKLAVLDILPTYEYWQRMNRAYALKIYHWSFLAQPAPLPENLLGGDPDFYVKAKLASWTRAGDLSAFDPRAVEHYRIAFADPMRRHVMCEDYRAGAYADFEHDKIDVEAGNKIPVPMLALWGASGIAQSAATPLDVWRKWASDVQGAPIESGHFLPEEAPDQTAEALVRFFSAAP | – | – | – | stoichiometry N (crystal structure): 2

From paper PMC3101105 (Journal of the American Chemical Society, 2011)
